Reference: patent US20120107324A1 (published 2012)
Substitutions are numbered along the chain they refer to.

B1: 2H12 (antibody, IgG4, V domains shown)
VH: QVQLVESGGGVVQPGRSLRLSCAASGFTFSSYGMHWVRQAPGKGLEWVAVIWYDGTNKYYADSVKGRFTISRDNSKTTLYLQMNSLRAEDTAVYYCARDGAARRGDYYYYYGMDVWGQGTTVTVSS
VL: DIVMTQSPLSLPVTPGEPASISCRSSQSLLRGHGYSYLDWYLQKPGQSPQLLIYLGSNRASGVPDRFSGSGSGTDFTLKISRVEAEDVGVYYCMQALQTPFTFGPGTKVDIK
notes: Identified as an IgG4/k antibody; also called MAb 2H12; 2H12 IgG4
B2: 1F2.2B7 (antibody, IgG4, V domains shown)
VH: B1 VH with S30R, T56S, T77N, V93M, Y111H
VL: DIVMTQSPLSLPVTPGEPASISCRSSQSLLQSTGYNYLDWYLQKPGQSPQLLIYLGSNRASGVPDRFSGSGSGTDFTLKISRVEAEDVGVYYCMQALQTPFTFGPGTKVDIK
notes: also called mAb 1F2.2B7
B3: 3F12.4A1 (antibody, IgG2, V domains shown)
VH: B1 VH with T77N, R87T, G100M, Q118P
VL: B1 VL with R31N, H33I, S36N, Y37F, K79T, Q95H
notes: Isotype IgG2/k
B4: 2G2.2B5 (antibody, IgG4, V domains shown)
VH: B1 VH with T56S, T77N
VL: B1 VL with D1E, S26G, R31Q, G32S, H33T, Y35S, S36N, D39A
notes: Isotype IgG4/k
B5: 7B1.3A1 (antibody, IgG4, V domains shown)
VH: B1 VH with S30R, I51L, T56S, Y59N, T77N, V93M, Y111H
VL: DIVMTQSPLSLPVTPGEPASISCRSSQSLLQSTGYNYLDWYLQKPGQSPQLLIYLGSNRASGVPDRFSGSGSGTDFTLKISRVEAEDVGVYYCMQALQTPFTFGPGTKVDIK
notes: also called MAb 7B1.3A1
B6: 4G3.3D11 (antibody, IgG4, V domains shown)
VH: B1 VH with T28I, T77N
VL: B1 VL with R31H, H33T, Y37S, Y92F
notes: Isotype IgG4/k
B7: IIA1 (antibody, V domains shown)
VH: QVQLKESGPGLVAPSQSLSITCTISGFSLTDYGVHWVRQPPGKGLEWLVVIWSDGSSTYNSALKSRMTIRKDNSKSQVFLIMNSLQTDDSAMYYCARHGTYYGMTTTGDALDYWGQGTSVTVSS
VL: QIVLTQSPAIMSASLGERVTMTCTASSSVSSNYLHWYQQKPGSAPNLWIYSTSNLASGVPARFSGSGSGTSYSLTISSMEAEDAATYYCHQYLRSPPTFGGGTKLEIK
B8: 2H12 IgG2 WT (antibody, V domains shown)
VH: B1 VH with T77N
VL: B1 VL
B9: 2H12 Variant 1 (IgG2) (antibody, V domains shown)
VH: B1 VH with T77N
VL: B1 VL

molecular target: T1, human α5β1 integrin (human, UniProt P08648 42-1049; P05556 21-798); experiment: FACS titration on K562 cells expressing α5β1, 1 mM MgCl2 and 1 mM CaCl2, 4 °C, nonlinear 4-parameter fit; 95% CI ±61.4 pM
T1 construct: whole, on cells; also called a5b1; a5
T1 sequence (P08648 42-1049, chain 1 of 2): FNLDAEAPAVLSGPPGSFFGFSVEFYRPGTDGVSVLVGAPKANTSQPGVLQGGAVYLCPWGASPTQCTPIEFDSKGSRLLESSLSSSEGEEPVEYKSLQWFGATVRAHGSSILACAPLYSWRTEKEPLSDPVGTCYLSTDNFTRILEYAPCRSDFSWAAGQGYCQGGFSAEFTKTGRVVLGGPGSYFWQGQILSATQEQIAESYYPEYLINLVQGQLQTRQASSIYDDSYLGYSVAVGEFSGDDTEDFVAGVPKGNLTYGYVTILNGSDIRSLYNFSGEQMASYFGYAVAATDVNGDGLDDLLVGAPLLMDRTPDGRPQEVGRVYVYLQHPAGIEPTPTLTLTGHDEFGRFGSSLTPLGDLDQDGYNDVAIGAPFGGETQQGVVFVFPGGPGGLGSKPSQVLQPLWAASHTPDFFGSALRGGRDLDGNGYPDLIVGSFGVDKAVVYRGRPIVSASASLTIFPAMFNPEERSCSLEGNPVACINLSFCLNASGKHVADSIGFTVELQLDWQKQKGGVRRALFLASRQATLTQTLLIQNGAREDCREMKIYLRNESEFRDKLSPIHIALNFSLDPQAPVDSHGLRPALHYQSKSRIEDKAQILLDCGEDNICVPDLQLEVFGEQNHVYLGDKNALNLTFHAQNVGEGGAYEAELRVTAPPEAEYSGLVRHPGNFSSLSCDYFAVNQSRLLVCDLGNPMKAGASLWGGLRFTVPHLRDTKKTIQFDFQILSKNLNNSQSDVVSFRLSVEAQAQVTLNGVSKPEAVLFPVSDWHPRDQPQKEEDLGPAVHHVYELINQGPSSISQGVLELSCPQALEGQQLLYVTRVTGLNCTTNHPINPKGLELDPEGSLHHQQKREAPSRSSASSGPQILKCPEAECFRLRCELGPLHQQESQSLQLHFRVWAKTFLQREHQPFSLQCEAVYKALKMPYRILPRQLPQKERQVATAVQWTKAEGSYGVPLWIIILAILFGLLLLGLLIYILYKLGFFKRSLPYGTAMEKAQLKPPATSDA
T1 sequence (P05556 21-798, chain 2 of 2): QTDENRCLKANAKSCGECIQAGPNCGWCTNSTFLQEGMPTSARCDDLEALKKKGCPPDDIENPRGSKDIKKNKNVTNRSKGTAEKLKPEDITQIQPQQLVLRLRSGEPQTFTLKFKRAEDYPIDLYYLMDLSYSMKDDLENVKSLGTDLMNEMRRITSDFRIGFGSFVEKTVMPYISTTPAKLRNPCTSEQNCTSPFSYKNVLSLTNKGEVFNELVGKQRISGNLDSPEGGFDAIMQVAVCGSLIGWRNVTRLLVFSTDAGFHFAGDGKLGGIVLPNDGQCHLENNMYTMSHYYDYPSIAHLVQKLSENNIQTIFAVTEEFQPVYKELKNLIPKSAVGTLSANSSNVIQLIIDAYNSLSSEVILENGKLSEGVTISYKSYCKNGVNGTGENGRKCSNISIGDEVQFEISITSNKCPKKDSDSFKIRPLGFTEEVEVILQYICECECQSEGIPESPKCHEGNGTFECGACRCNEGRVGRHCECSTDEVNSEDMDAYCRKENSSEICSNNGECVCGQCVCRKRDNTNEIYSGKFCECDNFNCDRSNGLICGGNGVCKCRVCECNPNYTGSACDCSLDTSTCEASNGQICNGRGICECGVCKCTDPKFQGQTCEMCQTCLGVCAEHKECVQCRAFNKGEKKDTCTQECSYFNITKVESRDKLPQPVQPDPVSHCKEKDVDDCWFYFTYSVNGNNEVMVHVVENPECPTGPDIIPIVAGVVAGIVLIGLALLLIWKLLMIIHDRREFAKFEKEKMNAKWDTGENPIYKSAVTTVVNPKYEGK
Experimental: To assess the affinity of the antibodies for α5β1, a FACS based KD analysis was employed. […] K562 cells expressing α5β1 were resuspended in filtered HBS buffer containing 1 mM MgCl₂ and 1 mM CaCl₂ at a concentration of approximately 2.5-6 million cells/mL. The cells were kept on ice. Serially diluted (2×) mAbs across 11 wells in a 96-well plate. All mAbs were diluted in HBS described above. Additional HBS and cells were added to each well so that the final volume was 300 μL/well and each well contained approximately 140,000-150,000 cells. The final molecular concentration range for each mAb was 2H12: 7.5 nM-[…]. Cells were incubated on a plate shaker for 5 hours at 4° C. and then were spun/washed 3× at 4° C. with HBS. […] The Mean Fluorescence (F) of 7000 “events” was determined using FACS Canto II HTS flow cytometry instrumentation. To calculate affinity, data was fitted nonlinearly to a plot of the Mean Fluorescence as a function of molecular mAb concentration with Scientist 3.0 software using the equation:
In this equation, F=mean fluorescence, LT=total molecular mAb concentration, P′=proportionality constant that relates arbitrary fluorescence units to bound mAb, M=cellular concentration in molarity, n=number of receptors per cell, B=background signal, and KD=equilibrium dissociation constant. […]

| Kd [nM] | Binder |
| --- | --- |
| 0.162 | B1 |

molecular target: T2, β1 chain (integrin β1) (human, UniProt P05556 21-798); experiment: FACS on HT29 cells (α5 null, β1 present); cells alone 2.07, human secondary 2.8
T2 construct: whole, on cells; also called b1; beta1
T2 sequence (P05556 21-798): as the sequence (P05556 21-798, chain 2 of 2) above
Experimental: (§1) To confirm the antibodies bind to the α5 chain or to the α5β1 heterodimer, binding to Human colon adenocarcinoma grade II cells (HT29 cells) was assessed by FACS. […] HT-29 cells were suspended in HBSS with 1% BSA and 1 mM final MnCL₂ at a concentration of 6×10⁵ cells/ml. 12.5 uL of the primary antibody was added to 37.5 ul of cells and the plate incubated on ice for 60 minutes. A range of negative controls were included as described previously (indicated as below). In addition as a positive control antibodies to αvβ6 (Mab2077, Chemicon), α5β1 (Mab1909, Chemicon) and αv (L230, Chemicon) were included. 100 uL of HBSS buffer was added to dilute primary antibody, the cells pelleted by centrifuging at 1500 rpm for 3 minutes and resuspended in 50 ul Goat anti-human IgG Fc Cy5 or Goat anti Mouse IgG Fc Cy5 secondary at 2 ug/mL. They were then incubated on ice for a further 7 minutes, and 100 uL of HBSS buffer was added to dilute secondary antibody. Finally cells were pelleted by centrifuging at 1500 rpm for 3 minutes, HBSS Buffer/secondary supernatant removed, washed twice in 100 ul of FACS buffer was added and the cells were resuspended and then read on a FACS Calibur HTS. Samples were analyzed using Cell Quest Pro software. The data is represented in Table 6 and confirm that the antibodies are selective for α5β1.

| Binding Geomean | Binder |
| --- | --- |
| 2.75 | B2 |
| 3.61 | B3 |
| 3.03 | B4 |
| 3.17 | B5 |
| 2.96 | B1 |
| 3.06 | B6 |

molecular target: T1, human α5β1 integrin; experiment: cell-based or functional assay

| IC50 ng/mL (adhesion of K562 cells to GST-Fibronectin type III domains 9-10) [ng/mL] | Binder |
| --- | --- |
| 49.8 | B5 |
| 43.2 | B1 |
| 60.2 | B6 |
| 16.7 | B7 |

molecular target: T3, Macaque α5β1 (Macaque); experiment: FACS on macaque T-cells; Goat anti Human IgG Fc Cy5 alone 3
T3 construct: whole, on cells; On macaque T-cells (from frozen PBMCs); also called monkey α5β1; monkey integrin
Experimental: To determine whether the antibodies cross reacted to monkey integrin, binding to purified Macaque T-cells was assessed. Macaque PBMCs were previously purified from whole blood, and stored frozen. Macaque PBMCs were suspended in adhesion buffer with HBSS 1% BSA and 1 mM Mn2+ (“FACS buffer”), at a concentration of 4.8×10⁵ live cells per ml. 12.5 uL of the primary antibody was added to 37.5 ul of cells, and incubated at 4° C. for 1 hour. Positive and negative controls were included as indicated. 100 uL of FACs buffer is added to dilute out primary antibody, the cells washed and resuspended in the appropriate secondary at 2 ug/mL (50 uL) with 10 ug/mL 7AAD, and stained on ice for 7 minutes. 100 uL of FACs buffer was added and cells were washed twice in FACS buffer, finally the supernatant removed and the cells were resuspended in 100 uL of buffer.
Samples were read on HTS FACS machine and analyzed using Cell Quest Pro software. The data shown in Table 7 confirm that the antibodies cross react with monkey α5β1.

| Geo Mean on Macaque T-cells IgG detection | Binder |
| --- | --- |
| 9 | B2 |
| 13 | B3 |
| 11 | B4 |
| 10 | B5 |

molecular target: T4, α4β1 integrin (UniProt P13612 34-1032; P05556 21-798); experiment: cell-based or functional assay
T4 sequence (P13612 34-1032, chain 1 of 2): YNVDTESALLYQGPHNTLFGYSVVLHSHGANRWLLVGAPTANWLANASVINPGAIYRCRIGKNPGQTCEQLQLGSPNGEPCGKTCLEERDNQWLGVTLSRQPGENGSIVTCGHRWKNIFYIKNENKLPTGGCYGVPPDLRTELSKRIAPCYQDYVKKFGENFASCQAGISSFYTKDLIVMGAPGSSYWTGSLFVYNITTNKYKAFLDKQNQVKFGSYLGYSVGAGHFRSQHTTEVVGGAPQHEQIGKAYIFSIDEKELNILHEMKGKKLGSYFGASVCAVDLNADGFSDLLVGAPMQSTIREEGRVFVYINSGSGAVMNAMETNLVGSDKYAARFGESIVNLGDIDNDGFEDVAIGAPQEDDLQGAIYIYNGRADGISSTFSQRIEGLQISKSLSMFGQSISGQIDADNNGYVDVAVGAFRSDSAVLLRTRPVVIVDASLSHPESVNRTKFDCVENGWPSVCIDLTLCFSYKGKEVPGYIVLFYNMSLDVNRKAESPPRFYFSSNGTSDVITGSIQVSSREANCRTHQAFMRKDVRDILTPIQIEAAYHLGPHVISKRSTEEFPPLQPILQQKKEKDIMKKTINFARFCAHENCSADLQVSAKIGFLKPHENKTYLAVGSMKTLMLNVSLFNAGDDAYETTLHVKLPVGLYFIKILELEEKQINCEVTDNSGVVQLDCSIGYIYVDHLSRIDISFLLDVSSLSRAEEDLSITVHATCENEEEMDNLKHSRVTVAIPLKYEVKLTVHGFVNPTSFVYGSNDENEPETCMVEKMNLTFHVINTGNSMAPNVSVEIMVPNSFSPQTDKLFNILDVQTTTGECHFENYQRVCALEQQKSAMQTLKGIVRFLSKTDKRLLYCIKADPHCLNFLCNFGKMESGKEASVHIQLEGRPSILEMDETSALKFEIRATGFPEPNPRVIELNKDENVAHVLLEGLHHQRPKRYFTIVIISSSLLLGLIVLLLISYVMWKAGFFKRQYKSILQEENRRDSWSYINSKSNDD
T4 sequence (P05556 21-798, chain 2 of 2): as the sequence (P05556 21-798, chain 2 of 2) above

| Average % inhibition at 5 ug/ml (J6 cell adhesion to GST-CS-1) [%] | Binder |
| --- | --- |
| -2 | B3 |
| -11 | B4 |
| -7 | B5 |

molecular target: T1, human α5β1 integrin; experiment: cell-based or functional assay; remark: another data set of the same source

| % Inhibition of cell adhesion, n = 1 (K562 on full length FN, supernatant 1 in 4) [%] | % Inhibition of cell adhesion, n = 2 (K562 on full length FN, supernatant 1 in 4) [%] | % Inhibition of cell adhesion, n = 3 (K562 on GST-FNIII(9-10), no pre-incubation, supernatant 1 in 4) [%] | % Inhibition of cell adhesion, n = 4 (K562 on GST-FNIII(9-10), supernatant 1 in 10) [%] | % Inhibition of cell adhesion, n = 5 (K562 on GST-FNIII(9-10), supernatant 1 in 10) [%] | Binder |
| --- | --- | --- | --- | --- | --- |
| 93 | 102 | 100 | 98 | 77 | B2 |
| 103 | 100 | 97 | 93 | 91 | B3 |
| 100 | 102 | 97 | 82 | 78 | B4 |
| 98 | 100 | 91 | 93 | 84 | B5 |
| 89 | 100 | 96 | 92 | 89 | B1 |
| 96 | 99 | 102 | 100 | 81 | B6 |

molecular target: T4, α4β1 integrin; experiment: cell-based or functional assay; remark: another data set of the same source

| % Inhibition of adhesion, CS1 n = 1 (J6.77 Jurkat cells on GST-CS-1) [%] | % Inhibition of adhesion, CS1 n = 2 (J6.77 Jurkat cells on GST-CS-1) [%] | Binder |
| --- | --- | --- |
| 29 | 22 | B2 |
| 28 | -5 | B4 |
| 33 | 12 | B5 |

molecular target: T2, β1 chain (integrin β1); experiment: FACS on HT29 cells (no α5 chain, β1 chain present)
Experimental: as §1

| binding result | Binder |
| --- | --- |
| no binding | B2 |
| no binding | B3 |
| no binding | B4 |
| no binding | B5 |
| no binding | B6 |

molecular target: T1, human α5β1 integrin; experiment: cell-based or functional assay; remark: another data set of the same source

| IC50 (read off the curve), adhesion of K562 cells to GST-fibronectin repeats 8-10 [µg/mL] | Binder |
| --- | --- |
| ~0.2 | B8 |
| ~0.2 | B9 |
| ~0.2 | B1 |
